T1: human CD300C-Fc (human)
T1 construct: hIgG1-Fc fusion; the entry is the whole fusion chain
T1 chain: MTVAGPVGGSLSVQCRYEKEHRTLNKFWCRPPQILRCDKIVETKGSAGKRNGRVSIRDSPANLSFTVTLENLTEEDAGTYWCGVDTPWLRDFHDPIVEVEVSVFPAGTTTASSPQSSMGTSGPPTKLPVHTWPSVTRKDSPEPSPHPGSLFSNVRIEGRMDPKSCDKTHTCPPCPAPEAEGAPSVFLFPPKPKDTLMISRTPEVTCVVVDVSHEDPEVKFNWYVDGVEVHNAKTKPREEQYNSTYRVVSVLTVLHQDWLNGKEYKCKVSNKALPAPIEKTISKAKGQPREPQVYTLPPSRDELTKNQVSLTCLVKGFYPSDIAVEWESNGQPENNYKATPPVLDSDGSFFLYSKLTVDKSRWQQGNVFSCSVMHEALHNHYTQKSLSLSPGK

T2: murine CD300D-Fc (mouse)
T2 construct: mouse IgG2a-Fc fusion (R&D Systems); the entry is the whole fusion chain; also called mCD300D; Mouse CD300D-Fc
T2 chain: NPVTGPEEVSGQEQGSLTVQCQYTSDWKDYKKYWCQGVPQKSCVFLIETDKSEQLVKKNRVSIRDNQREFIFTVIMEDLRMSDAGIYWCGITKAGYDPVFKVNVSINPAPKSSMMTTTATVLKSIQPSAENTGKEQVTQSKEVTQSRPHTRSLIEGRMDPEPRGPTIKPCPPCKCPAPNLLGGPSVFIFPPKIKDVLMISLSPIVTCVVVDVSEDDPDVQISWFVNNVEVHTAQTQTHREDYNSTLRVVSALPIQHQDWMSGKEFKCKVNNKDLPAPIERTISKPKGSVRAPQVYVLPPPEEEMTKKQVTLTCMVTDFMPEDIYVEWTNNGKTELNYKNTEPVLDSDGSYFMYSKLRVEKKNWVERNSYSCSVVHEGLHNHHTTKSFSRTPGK

T3: human CD300LB on primary human macrophages (human, UniProt A8K4G0 18-201)
T3 sequence: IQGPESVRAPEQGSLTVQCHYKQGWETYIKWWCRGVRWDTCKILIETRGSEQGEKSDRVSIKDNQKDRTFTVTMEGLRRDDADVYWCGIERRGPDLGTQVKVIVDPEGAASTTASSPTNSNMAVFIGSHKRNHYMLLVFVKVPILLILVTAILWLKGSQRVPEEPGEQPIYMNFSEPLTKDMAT

T4: human CD300LB on primary human monocytes (human, UniProt A8K4G0 18-201)
T4 construct: Endogenous protein on primary cells; that the target is CD300LB is inferred from the antibodies being anti-CD300LB antibodies; also called Monocyte donor 1281; Monocyte donor 1282
T4 sequence: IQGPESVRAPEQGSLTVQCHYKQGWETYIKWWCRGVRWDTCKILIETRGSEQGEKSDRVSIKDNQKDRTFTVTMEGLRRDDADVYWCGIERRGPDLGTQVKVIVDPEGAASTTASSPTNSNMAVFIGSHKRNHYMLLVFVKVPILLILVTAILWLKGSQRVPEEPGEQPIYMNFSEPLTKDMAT


Legend:
human CD300C-Fc = biological target: T1, human CD300C-Fc; assay: SPR (Carterra LSA), antibody immobilised
In short: (§1)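 Mouse anti-CD300LB IgG1 antibodies were amine-coupled in a 96-spot array on an HC200M chip; Fc-fused CD300 ectodomains (human on hIgG1-Fc) flowed over as analytes at 300 nM or 600 nM in HBS-TE with 0.5 mg/ml BSA, injected in series without regeneration, with kinetics fitted by high-throughput analysis.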

murine CD300D-Fc = biological target: T2, murine CD300D-Fc; assay: SPR (Carterra LSA), antibody immobilised
In short: as §1

[1] = biological target: T3, human CD300LB on primary human …; assay: flow cytometry, primary human macrophages donor 1277, 10 ug/mL antibody, isotype control subtracted
Protocol: (§2) Human monocytes from various donors were isolated from whole blood using RosetteSep Human Monocyte Enrichment Cocktail (Stemcell technologies) and Ficoll centrifugation per manufacturer protocols. After lysing red blood cells with ACK lysing buffer, monocytes were resuspended in complete media (RPMI, 10% FBS, Pen/Strep, L-glutamine, HEPES, non-essential amino acid, Sodium pyruvate). To obtain macrophages from these isolated monocytes, 100 ng/ml human M-CSF and 8% v/v human serum were added to the cells for 5-7 days. Cells were counted on the day of the experiment and plated at 100,000 cells per well in a round-bottom 96 well plate. Cells were incubated with TruStain Fc block and 10 μg/mL antibody for 1 hour on ice before washing with 250 μL ice cold PBS twice. Cells were then incubated with the appropriate APC-conjugated secondary antibodies for 20 minutes in the dark on ice. Finally, cells were washed twice with ice cold FACS buffer and then resuspended in 100 μL FACS buffer containing 1% propidium iodide. Samples were immediately analyzed using a BD FACSCanto flow cytometer. The gMFI was calculated using FlowJo software minus the gMFI of the appropriate isotype control.

[2] = biological target: T4, human CD300LB on primary human monocytes; assay: flow cytometry, primary human monocytes donor 1282, 10 ug/mL antibody, isotype control subtracted
Protocol: as §2

Binder | binding result (human CD300C-Fc) | binding result (murine CD300D-Fc) | further results
anti-CD300LB antibody CD-01 (antibody, V domains shown) VH: RVQLQQSGAELVRPGASVTLSCKASGFTFTDFEMHWVKKTPVHGLEWIGAIDPESGNTAYNQKFRGKATLTADKSSSTAYMELRYLTSEDSAVYYCTPLISGADYWGQGTTLTVSS VL: DVVMTQSPLSLPVSLGDQASISCRSSQSLVHSDGNTYLYWYLQKPGQSPKLLIYKVSNRFSGVPDRFSGSGSGTDFTFKISRVGAEDLGVYFCSQSTHVPWTFGGGTKLEII | no binding (tested: 300 nM or 600 nM) | – | –
anti-CD300LB antibody CD-02 (antibody, V domains shown) VH: QVQLQQPGAELVRPGSSVKLSCQASGYTFTNYWMHWVRQRPIQGLEWIGNIDPSDSETHYNQKFKDRATLTVDKSSSTAYMQLSSLTSEDSAVYYCARSGVYDDEGGDYWGQGTTLTVSS VL: ENVLTQSPAIMSASPGEKVTMTCSASSSVSYIHWYQQKSSTSPKLWIYDTSKLASGVPGRFSGSGSGNSYSLTISSMETEDVATYYCFQGSGYPLTFGAGTKLELK | no binding (tested: 300 nM or 600 nM) | – | –
anti-CD300LB antibody CD-07 (antibody, V domains shown) VH: QVQLVQSGAEVKKPGASVKVSCKASGYTFTNYRMHWVRQAPGQGLEWMGWINPNSGGTIYAQKFQGRVTMTRDTSTSTVYMELSSLRSEDTAVYYCARDLDYWGQGTLVTVSS VL: DIQMTQSPSSLSASVGDRVTITCQASQDISNYLNWYQQKPGKAPKLLIYGASSLQSGVPSRFSGSGSGTDFTLTISSLQPEDFATYYCQQSYSTPWTFGPGTKVEIK | – | – | gMFI [1]: 3790 gMFI; gMFI [2]: 468 gMFI
anti-CD300LB antibody CD-06 (antibody, V domains shown) VH: QVQLVQSGAEVKKPGASVKVSCKASGYTFTTYAVHWVRQAPGQGLEWMGIVNPNSGGTNYAQKFQGRVTMTRDTSTSTVYMELSSLRSEDTAVYYCARDIVPMNNFYNYYYGMDVWGQGTTVTVSS VL: DIQMTQSPSSLSASVGDRVTITCRASQSISSYLNWYQQKPGKAPKLLIYATSTLQSGVPSRFSGSGSGTDFTLTISSLQPEDFATYYCQQSYRIPYTFGQGTKVEIK | – | – | gMFI [1]: 24000 gMFI; gMFI [2]: 3440 gMFI
anti-CD300LB antibody CD-05 (antibody, V domains shown) VH: QVQLVQSGAEVKKPGASVKVSCKASGYTFSRYYINWVRQAPGQGLEWMGWINPNSGGTNYAQKFQGRVTMTRDTSTSTVYMELSSLRSEDTAVYYCTTDQLRFGKTGPYYGMDVWGQGTTVTVSS VL: DIQMTQSPSSLSASVGDRVTITCRASQNIGTYLNWYQQKPGKAPKLLIYAASSLQSGVPSRFSGSGSGTDFTLTISSLQPEDFATYYCQQSYSDTLTFGGGTKVEIK | no binding (tested: 300 nM or 600 nM) | – | gMFI [1]: 68600 gMFI; gMFI [2]: 1560 gMFI

The next lines start with results.

binding result (human CD300C-Fc) | binding result (murine CD300D-Fc) | Binder | further results
– | no binding (tested: 300 nM or 600 nM) | anti-CD300LB antibody CD-18 (antibody, V domains shown) VH: DVQLQESGPDLVKPSQSLSLTCTVTGYSITSGYSWHWIRQFPDNKLEWMGYILSRGDTNFNPSLKSRISITRSTSNNQFFLHFNSVTTEDTATYYCARDFFDYWGQGTTLTVSS VL: DVLMTQTPLSLPVSLGDQASISCRSSQSIVHSNGNTYLEWYLQKPGQSPKLLIYKVSDRFSGVPDRFSGSGSGTDFTLKISRVEAEDLGVYFCFQGSHVPYTFGGGTKLEIK | –
– | no binding (tested: 300 nM or 600 nM) | anti-CD300LB antibody CD-12 (antibody, V domains shown) VH: QIQLVQSGPELKKPGETVKISCKASGYTFTDYSMHWVRQAPGKGLKWMAWINTETGEATHADDFKGRFDFSLDTSASTAYLQIKNLKNEDTGIYFCVCYGSSYGMDYWGQGTSVTVSS VL: DIVLTQSPASLPVSLGQRATISCRASKSVRTSGASYMHWYQQKPGQPPKLLIYLASNLKSGVPTRFSGSGSGTDFTLNIHPVEEEDAATYYCQHNREVPPTFGGGTKLEIK | –
– | no binding (tested: 300 nM or 600 nM) | anti-CD300LB antibody CD-17 (antibody, V domains shown) VH: QIQLVQSGPELKKPGETVKISCKASGYTLTDYSMHWVKQAPGKGLKWMGWINTETGEPRYGDDFKGRFAFSLETSASSAYLQINNLKNDDTATYFCATYGRSYGMDFWGQGTSVTVSS VL: DIVLTQSPASLAVSLGQRATISCRASKSVSPSGHSYMHWYQQKPGQPPKLLIYLASNLKSGVPARFSGSGSGTDFTLNIHPVEEGDAATYYCQHNRELPPTFGGGSKLEIK | –
– | no binding (tested: 300 nM or 600 nM) | anti-CD300LB antibody CD-15 (antibody, V domains shown) VH: QIQLVQSGPELKKPGETVKISCQVSGYTFTDYSMHWLKQAPGKGLKWMAWINTETGESTYTDEFKGRFVFSLETSVRTAYLKINNLKNEDTATYFCGTYGSSYGMAYWGQGTSVTVSS VL: DIVLTQSPASLPVSLGQRATISCRASKSVSTSGSSYLHWYQQKPGQPPKLLIYLASKLESGVPARFRGSGSGTDFTLNIHPVEEEDAATYYCQHNREVPPTFGGGTKLEIK | –
– | no binding (tested: 300 nM or 600 nM) | anti-CD300LB antibody CD-11 (antibody, V domains shown) VH: QIQLVQSGPEVKKPGETVKISCKASGYTLTDYSMHWVMQTPGTGLKWMAWMNTETGEPTYADDFKGRFAFSLETSAGTAYLQIDNLKNEDTATYFCATYGKSYGMKYWGQGTSVTVSS VL: DIVLTQSPPSLAVSLGQRATISCRATKSVSPYLHWYQQTPGQPPKLLIYLASNLDSGVPARFSGSGSGTDFTLNIHPVEEEDAATYYCQHNKELPPTFGGGTRLEIK | –
no binding (tested: 300 nM or 600 nM) | – | anti-CD300LB antibody CD-03 (antibody, V domains shown) VH: EVQLQQSGPELVKPGASVKISCKASGYTFTDYYINWVRQSHGKSLECIGDINPNNGGTNYNQKFKGKATLTVDRSSNTAYMEFRSLTFDDSALYYCAAEGAYWGQGTLVTVSA VL: not shown | –

— patent US20240254227A1 (Alector, published 2024)
